Laboratory results reported in patent US20190241895.

Test system: secretory immunoglobulin A (sIgA) (Homo sapiens)
Assay: SPR
[1] = KS9 (adenine-residue-modified T) at the T after GCAATCTCCCTAATC, 3' poly(dA)20 added for SPR, SPR buffer 1 mM MgCl2 pH 7.4
[2] = NG7 (guanine-residue-modified T) at underlined T i.e. T after GCAATCTCCCTAATC, 3' poly(dA)20 added for SPR, SPR buffer 1 mM MgCl2 pH 7.4
[3] = KS9 (adenine-residue-modified T) at T after the 5' primer region GGTTTGGACGCAATCTCCCTAATC, 3' poly(dA)20 added for SPR, SPR buffer 1 mM MgCl2 pH 7.4
[4] = MK4 (adenine-residue-modified dA) at A after the 5' primer region GGTTTGGACGCAATCTCCCTAATC, 3' poly(dT)20 added for SPR, SPR buffer 1 mM MgCl2 pH 7.4
[5] = NG7 (guanine-residue-modified T) at T after the 5' primer region GGTTTGGACGCAATCTCCCTAATC, 3' poly(dA)20 added for SPR, SPR buffer 1 mM MgCl2 pH 7.4

Question: Which Kd [1] does the source give for “GCAATCTCCCTAATCAAAGATATGCTAAGATAGATAGTTTGGCTTG [KS9 aptamer SEQ 19]” here?
Answer: The Kd was 8 nM.

Question: How did the Kd [1] turn out when “GCAATCTCCCTAATCGTATATCAAGCAGATGTGTTCACTTGGGGAG [KS9 aptamer SEQ 17]” was run?
Answer: The Kd was 12.9 nM.

Question: “GCAATCTCCCTAATCTGCTGATGTTTGTATTTCAAATTAGC [NG7 aptamer SEQ 15]” was tested. Which Kd [2] did it give?
Answer: Its Kd is 2.59 nM.

Question: “GCAATCTCCCTAATCTGCTGATGTTTGTATTTCAAATTAGCCGCAG [NG7 aptamer SEQ 14]” was tested. Which Kd [2] did it give?
Answer: The Kd was 10 nM.

Question: With “GCAATCTCCCTAATCTTTATACGTATGGACTTAGGCTTTGTTATAGAAAC [KS9 aptamer SEQ 21]” as the sequence, how does the Kd [1] read?
Answer: Its Kd is 2.1 nM.

Question: Which Kd [3] does the source give for “GGTTTGGACGCAATCTCCCTAATCAAAGATATGCTAAGATAGATAGTTTGGCTTGAAACTACAATGGGCGGGCTTATC [KS9 aptamer SEQ 9]” here?
Answer: The Kd was 4.8 nM.

Question: Which Kd [4] does the source give for “GGTTTGGACGCAATCTCCCTAATCAAGCCACGGAGAGTCCGAGGTGACCATTAAGCAGGAAACTACAATGGGCGGGCTTA [MK4 aptamer SEQ 3]” here?
Answer: The Kd was 7.6 nM.

Question: Which Kd [3] does the source give for “GGTTTGGACGCAATCTCCCTAATCACCTGTACTGGTTATTATGCCTGCCAACATGAAACTACAATGGGCGGGCTTATC [KS9 aptamer SEQ 10]” here?
Answer: Its Kd is 30.2 nM.

Question: For “GGTTTGGACGCAATCTCCCTAATCAGACAATATTAGAGTGTTACCACCTGTGATGAAACTACAATGGGCGGGCTTATC [NG7 aptamer SEQ 7]”, which Kd [5] is on record?
Answer: The Kd was 37.7 nM.

Question: Which Kd [4] does the source give for “GGTTTGGACGCAATCTCCCTAATCAGATGATATCGAGATGCGAAGCGACCGCATGAAACTACAATGGGCGGGCTTATC [MK4 aptamer SEQ 2]” here?
Answer: Its Kd is 7.6 nM.

Question: How did the Kd [3] turn out when “GGTTTGGACGCAATCTCCCTAATCCTATCTGTTTTATCAATTGTAGCAAGTTATGAAACTACAATGGGCGGGCTTATC [KS9 aptamer SEQ 12]” was run?
Answer: The Kd was 9 nM.

Question: For “GGTTTGGACGCAATCTCCCTAATCGATCTAGATGGTCTCGGGTATGGCTAGATAGAAACTACAATGGGCGGGCTTATC [MK4 aptamer SEQ 4]”, which Kd [4] is on record?
Answer: The Kd was 17.4 nM.

Question: “GGTTTGGACGCAATCTCCCTAATCGTATATCAAGCAGATGTGTTCACTTGGGGAGAAACTACAATGGGCGGGCTTATC [KS9 aptamer SEQ 8]” was tested. Which Kd [3] did it give?
Answer: Its Kd is 10 nM.

Question: With “GGTTTGGACGCAATCTCCCTAATCTAAATAGATTTCACAGTGGATCCTTCAGAGGAAACTACAATGGGCGGGCTTATC [NG7 aptamer SEQ 6]” as the sequence, how does the Kd [5] read?
Answer: The Kd was 11.6 nM.

Question: With “GGTTTGGACGCAATCTCCCTAATCTACTACGATATCCAGATGGGAAGTGACCGTGAAACTACAATGGGCGGGCTTATC [MK4 aptamer SEQ 1]” as the sequence, how does the Kd (MK4 (adenine-residue-modified dA) at A after the 5' primer region GGTTTGGACGCAATCTCCCTAATC, 3' poly(dT)20 added for SPR, 40 mM HEPES, 125 mM NaCl, 5 mM KCl, 1 mM MgCl2, 0.01% Tween 20, pH 7.4) read?
Answer: Its Kd is 8.6 nM.

Question: “GGTTTGGACGCAATCTCCCTAATCTGCTGATGTTTGTATTTCAAATTAGCCGCAGAAACTACAATGGGCGGGCTTATC [NG7 aptamer SEQ 5]” was tested. Which Kd [5] did it give?
Answer: Its Kd is 11.8 nM.

Question: Which Kd [3] does the source give for “GGTTTGGACGCAATCTCCCTAATCTTTATACGTATGGACTTAGGCTTTGTTATAGAAACTACAATGGGCGGGCTTATC [KS9 aptamer SEQ 11]” here?
Answer: The Kd was 1.3 nM.
